Reference: publication PMC7018383
Blank lines part the entries; values can stand above or below the substance they belong to.

Molecular target: β2B (UniProt Q08289)
Assay: flow-cytometric FRET 2-hybrid

Rad, sequence (O88667 whole entry, looked up, change not shown): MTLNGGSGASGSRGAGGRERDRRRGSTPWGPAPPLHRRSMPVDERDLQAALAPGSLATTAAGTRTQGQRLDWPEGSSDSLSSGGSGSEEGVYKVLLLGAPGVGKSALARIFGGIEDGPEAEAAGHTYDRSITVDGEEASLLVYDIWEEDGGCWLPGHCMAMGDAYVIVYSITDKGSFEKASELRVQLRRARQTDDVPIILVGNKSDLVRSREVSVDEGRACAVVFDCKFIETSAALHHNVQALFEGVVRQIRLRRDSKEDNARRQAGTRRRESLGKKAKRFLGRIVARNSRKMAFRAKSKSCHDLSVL

other: Kd,EFF (FRET 2-hybrid, relative) (reference: WT Rad with PKAcat, sites S25,S38,S272,S300): stronger; reference 145231 ± 3084
Substance: Rad (from UniProt O88667) 4-SA Rad with PKAcat

other: Kd,EFF (FRET 2-hybrid, relative) (reference: 4-SA Rad, no PKAcat): same; reference 4346± 197
Substance: Rad (from UniProt O88667) 4-SA Rad, PKAcat co-expressed

other: Kd,EFF (FRET 2-hybrid, relative) (reference: WT Rad, no PKAcat, sites S25,S38,S272,S300): weaker; reference 7957 ± 418
Substance: Rad (from UniProt O88667) WT Rad, PKAcat co-expressed
